Measurements reported in article doi:10.1101/481754, “Tumor Protein D54 is a promiscuous Rab effector” (bioRxiv, 2018).

Molecular target: T1, MBP-TPD54-His (human, UniProt O43399 1-206)
T1 construct: human Tumor protein D54 (TPD54/TPD52L2) inserted in the pMalPre-His vector; also called recombinant MBP-TPD54-His; source: E. coli BL21, purified (HisTrap); not shown: MBP, N-terminal, kept; His, C-terminal, kept
Assay: pull-down; 3 µM GST, GST-Rab1a or GST-Rab6a pre-loaded with 300 µM GppNHp, incubated with 3 µM MBP-TPD54-His 90 min at 20 °C in 25 mM HEPES, 150 mM KCl, 5 mM MgCl2 pH 7.4; glutathione-sepharose beads; Coomassie gel
Details: both partners purified

T1 sequence (O43399 whole entry): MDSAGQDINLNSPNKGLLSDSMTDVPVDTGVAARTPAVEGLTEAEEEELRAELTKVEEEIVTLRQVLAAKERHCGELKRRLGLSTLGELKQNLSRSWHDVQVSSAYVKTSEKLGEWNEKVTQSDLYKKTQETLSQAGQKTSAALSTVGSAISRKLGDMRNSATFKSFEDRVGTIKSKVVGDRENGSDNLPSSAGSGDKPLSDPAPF

binding result: binds
B1: GST-Rab1a (natural protein)
chain: not shown
notes: human Rab1a, cut from GFP-Rab1a and inserted into pGEX-6P1; pre-loaded with GDP or GppNHp; source: E. coli BL21, purified (GSTrap); not shown: GST, N-terminal, kept
